In the supplement of paper PMC10567573:

B1: FAM46D (parent)
chain: FQEAMTHLQHKLICTRKPEEIRGG

Variants of: B1
Experiment: protein stability index of a GFP-peptide fusion (GPS, HEK-293T) (PSI 1-6); higher = more stable
Conditions: c terminus: a fixed tail appended
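Further: lentivirally expressed fusions sorted by FACS into six bins by GFP to DsRed ratio, PSI derived from sequencing read proportions per bin multiplied by bin number.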

Variant | protein stability index
FQEAMTHLQHKLNCTRKPEEIRGG | 3.33
FQEAMTHLQHKLKCTRKPEEIRGG | 3.67
FQEAMTHLQHKLTCTRKPEEIRGG | 2.52
FQEAMTHLQHKLVCTRKPEEIRGG | 2.76
FQEAMTHLQHKLCCTRKPEEIRGG | 3.07
FQEAMTHLQHKLGCTRKPEEIRGG | 2.67
FQEAMTHLQHKLQCTRKPEEIRGG | 3.58
FQEAMTHLQHKLRCTRKPEEIRGG | 2.72
FQEAMTHLQHKLDCTRKPEEIRGG | 2.57
FQEAMTHLQHKLFCTRKPEEIRGG | 1.73
FQEAMTHLQHKLECTRKPEEIRGG | 3.67
FQEAMTHLQHKLPCTRKPEEIRGG | 2.95
FQEAMTHLQHKLYCTRKPEEIRGG | 3.58
FQEAMTHLQHKLHCTRKPEEIRGG | 2.54
FQEAMTHLQHKLLCTRKPEEIRGG | 2.13
FQEAMTHLQHKLACTRKPEEIRGG | 2.76
FQEAMTHLQHKLSCTRKPEEIRGG | 2.94
FQEAMTHLQHKLMCTRKPEEIRGG | 2.61
FQEAMTHLQHKLICTRAPEEIRGG | 2.58
FQEAMTHLQHKLICTRWPEEIRGG | 2.03
FQEAMTHLQHKLICTRVPEEIRGG | 2.64
FQEAMTHLQHKLICTRYPEEIRGG | 1.85
FQEAMTHLQHKLICTRDPEEIRGG | 3.46
FQEAMTHLQHKLICTRLPEEIRGG | 1.66

Variant | protein stability index
FQEAMTHLQHKLICTRTPEEIRGG | 2.65
FQEAMTHLQHKLICTRRPEEIRGG | 2.02
FQEAMTHLQHKLICTRFPEEIRGG | 2.03
FQEAMTHLQHKLICTRCPEEIRGG | 1.91
FQEAMTHLQHKLICTRMPEEIRGG | 2.87
FQEAMTHLQHKLICTRIPEEIRGG | 2.68
FQEAMTHLQHKLICTRHPEEIRGG | 2.38
FQEAMTHLQHKLICTRGPEEIRGG | 2.77
FQEAMTHLQHKLICTRQPEEIRGG | 2.33
FQEAMTHLQHKLICTRSPEEIRGG | 2.75
FQEAMTHLQHKLICTREPEEIRGG | 3.03
FQEAMTHLQHKLICTRPPEEIRGG | 2.52
FQEAMTHLQHKLICTRNPEEIRGG | 2.9
FQEAMTHLQHKLIFTRKPEEIRGG | 2.58
FQEAMTHLQHKLIVTRKPEEIRGG | 2.96
FQEAMTHLQHKLIETRKPEEIRGG | 3.36
FQEAMTHLQHKLITTRKPEEIRGG | 2.7
FQEAMTHLQHKLIWTRKPEEIRGG | 1.68
FQEAMTHLQHKLIKTRKPEEIRGG | 2.6
FQEAMTHLQHKLINTRKPEEIRGG | 2.71
FQEAMTHLQHKLIDTRKPEEIRGG | 3.17
FQEAMTHLQHKLIPTRKPEEIRGG | 2.33
FQEAMTHLQHKLIYTRKPEEIRGG | 2.45
FQEAMTHLQHKLIQTRKPEEIRGG | 2.51

Variant | protein stability index
FQEAMTHLQHKLIITRKPEEIRGG | 2.21
FQEAMTHLQHKLISTRKPEEIRGG | 2.87
FQEAMTHLQHKLIHTRKPEEIRGG | 2.82
FQEAMTHLQHKLILTRKPEEIRGG | 2.55
FQEAMTHLQHKLIGTRKPEEIRGG | 2.63
FQEAMTHLQHKLIMTRKPEEIRGG | 2.38
FQEAMTHLQHKLIRTRKPEEIRGG | 3.28
FQEAMTHLQHKLICTRKPEEKRGG | 3.72
FQEAMTHLQHKLICTRKPEEYRGG | 2.21
FQEAMTHLQHKLICTRKPEEQRGG | 3.05
FQEAMTHLQHKLICTRKPEECRGG | 2.73
FQEAMTHLQHKLICTRKPEEVRGG | 2.43
FQEAMTHLQHKLICTRKPEEWRGG | 2.07
FQEAMTHLQHKLICTRKPEELRGG | 2.34
FQEAMTHLQHKLICTRKPEENRGG | 3.87
FQEAMTHLQHKLICTRKPEEMRGG | 2.9
FQEAMTHLQHKLICTRKPEEGRGG | 2.69
FQEAMTHLQHKLICTRKPEEHRGG | 3.4
FQEAMTHLQHKLICTRKPEEERGG | 2.98
FQEAMTHLQHKLICTRKPEERRGG | 3.93
FQEAMTHLQHKLICTRKPEEDRGG | 3.26
FQEAMTHLQHKLICTRKPEEPRGG | 3.36
FQEAMTHLQHKLICTRKPEETRGG | 3.56
FQEAMTHLQHKLICTRKPEEARGG | 3.27

Variant | protein stability index
FQEAMTHLQHKLICTRKPEEFRGG | 2.62
FQEAMTHLQHKLICTRKPEESRGG | 3.74
FQEAMTHLQHKLICTRKPECIRGG | 2.3
FQEAMTHLQHKLICTRKPEGIRGG | 1.99
FQEAMTHLQHKLICTRKPEVIRGG | 2.38
FQEAMTHLQHKLICTRKPEHIRGG | 1.89
FQEAMTHLQHKLICTRKPEMIRGG | 2.03
FQEAMTHLQHKLICTRKPEIIRGG | 1.77
FQEAMTHLQHKLICTRKPESIRGG | 2.33
FQEAMTHLQHKLICTRKPENIRGG | 2.64
FQEAMTHLQHKLICTRKPETIRGG | 2.5
FQEAMTHLQHKLICTRKPEKIRGG | 3.26
FQEAMTHLQHKLICTRKPEYIRGG | 2.34
FQEAMTHLQHKLICTRKPEPIRGG | 2.39
FQEAMTHLQHKLICTRKPERIRGG | 2.19
FQEAMTHLQHKLICTRKPEWIRGG | 2.08
FQEAMTHLQHKLICTRKPEQIRGG | 2.33
FQEAMTHLQHKLICTRKPELIRGG | 2.05
FQEAMTHLQHKLICTRKPEAIRGG | 2.15
FQEAMTHLQHKLICTRKPEDIRGG | 2.69
FQEAMTHLQHKLICTRKPEFIRGG | 2.38
FQEAMTHLQHKLICTVKPEEIRGG | 2.77
FQEAMTHLQHKLICTQKPEEIRGG | 3.16
FQEAMTHLQHKLICTGKPEEIRGG | 2.6

Variant | protein stability index
FQEAMTHLQHKLICTMKPEEIRGG | 2.21
FQEAMTHLQHKLICTIKPEEIRGG | 2.08
FQEAMTHLQHKLICTYKPEEIRGG | 3.21
FQEAMTHLQHKLICTNKPEEIRGG | 3.02
FQEAMTHLQHKLICTSKPEEIRGG | 2.75
FQEAMTHLQHKLICTCKPEEIRGG | 1.84
FQEAMTHLQHKLICTLKPEEIRGG | 2.55
FQEAMTHLQHKLICTAKPEEIRGG | 3.35
FQEAMTHLQHKLICTHKPEEIRGG | 2.6
FQEAMTHLQHKLICTPKPEEIRGG | 2.87
FQEAMTHLQHKLICTKKPEEIRGG | 2.09
FQEAMTHLQHKLICTWKPEEIRGG | 1.67
FQEAMTHLQHKLICTFKPEEIRGG | 2.62
FQEAMTHLQHKLICTDKPEEIRGG | 2.68
FQEAMTHLQHKLICTEKPEEIRGG | 2.57
FQEAMTHLQHKLICTTKPEEIRGG | 2.56
FQEAMTHLQHKLICTRKPEEIKGG | 3.07
FQEAMTHLQHKLICTRKPEEIFGG | 2.34
FQEAMTHLQHKLICTRKPEEIHGG | 3.14
FQEAMTHLQHKLICTRKPEEIIGG | 2.41
FQEAMTHLQHKLICTRKPEEISGG | 2.66
FQEAMTHLQHKLICTRKPEEICGG | 2.41
FQEAMTHLQHKLICTRKPEEIEGG | 3.29
FQEAMTHLQHKLICTRKPEEITGG | 2.96

Variant | protein stability index
FQEAMTHLQHKLICTRKPEEIVGG | 3.04
FQEAMTHLQHKLICTRKPEEILGG | 2.7
FQEAMTHLQHKLICTRKPEEINGG | 2.93
FQEAMTHLQHKLICTRKPEEIAGG | 2.85
FQEAMTHLQHKLICTRKPEEIMGG | 2.39
FQEAMTHLQHKLICTRKPEEIGGG | 2.85
FQEAMTHLQHKLICTRKPEEIQGG | 2.94
FQEAMTHLQHKLICTRKPEEIDGG | 3.3
FQEAMTHLQHKLICTRKPEEIPGG | 2.51
FQEAMTHLQHKLICDRKPEEIRGG | 3.01
FQEAMTHLQHKLICGRKPEEIRGG | 3.56
FQEAMTHLQHKLICERKPEEIRGG | 3.06
FQEAMTHLQHKLICWRKPEEIRGG | 2.31
FQEAMTHLQHKLICNRKPEEIRGG | 2.79
FQEAMTHLQHKLICPRKPEEIRGG | 3.04
FQEAMTHLQHKLICCRKPEEIRGG | 2.42
FQEAMTHLQHKLICYRKPEEIRGG | 2.17
FQEAMTHLQHKLICLRKPEEIRGG | 1.77
FQEAMTHLQHKLICVRKPEEIRGG | 2.94
FQEAMTHLQHKLICKRKPEEIRGG | 3.42
FQEAMTHLQHKLICQRKPEEIRGG | 3.31
FQEAMTHLQHKLICHRKPEEIRGG | 2.22
FQEAMTHLQHKLICMRKPEEIRGG | 3.17
FQEAMTHLQHKLICARKPEEIRGG | 3.06

Variant | protein stability index
FQEAMTHLQHKLICIRKPEEIRGG | 2.21
FQEAMTHLQHKLICSRKPEEIRGG | 2.92
FQEAMTHLQHKLICTRKLEEIRGG | 2.11
FQEAMTHLQHKLICTRKGEEIRGG | 2.48
FQEAMTHLQHKLICTRKWEEIRGG | 2.35
FQEAMTHLQHKLICTRKQEEIRGG | 2.19
FQEAMTHLQHKLICTRKNEEIRGG | 3.04
FQEAMTHLQHKLICTRKCEEIRGG | 1.3
FQEAMTHLQHKLICTRKDEEIRGG | 2.7
FQEAMTHLQHKLICTRKHEEIRGG | 2.33
FQEAMTHLQHKLICTRKMEEIRGG | 2.24
FQEAMTHLQHKLICTRKTEEIRGG | 2.85
FQEAMTHLQHKLICTRKFEEIRGG | 2.61
FQEAMTHLQHKLICTRKEEEIRGG | 3.41
FQEAMTHLQHKLICTRKVEEIRGG | 2.54
FQEAMTHLQHKLICTRKSEEIRGG | 2.43
FQEAMTHLQHKLICTRKAEEIRGG | 2.72
FQEAMTHLQHKLICTRKYEEIRGG | 2.14
FQEAMTHLQHKLICTRKIEEIRGG | 2
FQEAMTHLQHKLICTRKREEIRGG | 2.09
FQEAMTHLQHKLICTRKKEEIRGG | 1.82
FQEAMTHLQHKLICTRKPGEIRGG | 1.83
FQEAMTHLQHKLICTRKPFEIRGG | 2.09
FQEAMTHLQHKLICTRKPREIRGG | 1.42

Variant | protein stability index
FQEAMTHLQHKLICTRKPDEIRGG | 2.55
FQEAMTHLQHKLICTRKPHEIRGG | 2.3
FQEAMTHLQHKLICTRKPMEIRGG | 1.58
FQEAMTHLQHKLICTRKPIEIRGG | 1.98
FQEAMTHLQHKLICTRKPSEIRGG | 2.76
FQEAMTHLQHKLICTRKPNEIRGG | 2.53
FQEAMTHLQHKLICTRKPQEIRGG | 2.23
FQEAMTHLQHKLICTRKPKEIRGG | 2.67
FQEAMTHLQHKLICTRKPVEIRGG | 2.01
FQEAMTHLQHKLICTRKPYEIRGG | 2.15
FQEAMTHLQHKLICTRKPAEIRGG | 2.79
FQEAMTHLQHKLICTRKPPEIRGG | 3.13
FQEAMTHLQHKLICTRKPCEIRGG | 1.97
FQEAMTHLQHKLICTRKPTEIRGG | 2.28
FQEAMTHLQHKLICTRKPLEIRGG | 2.26
FQEAMTHLQHKSICTRKPEEIRGG | 3.4
FQEAMTHLQHKTICTRKPEEIRGG | 3.99
FQEAMTHLQHKYICTRKPEEIRGG | 2.31
FQEAMTHLQHKWICTRKPEEIRGG | 1.27
FQEAMTHLQHKVICTRKPEEIRGG | 3.06
